Reference: paper PMC7093153 (eLife, 2020)

B1: Swi5-Sfr1 complex (wild type, full-length Sfr1) (complex, S. pombe)
chain 1: MEKSQLESRVHLLEQQKEQLESSLQDALAKLKNRDAKQTVQKHIDLLHTYNEIRDIALGMIGKVAEHEKCTSVELFDRFGVNGSE
chain 2: MSQTINSELNENATSQCKEDLKVSLSESDLRDSQGQLGIENPPKCNNSGNHSDNLGFIEQSETVHPENEKALTPDLRDTKIHTSLPITTPFSKKRAREAKNILLKPFKSPLRQTASPQVADTNLKPSLAVTNLNSDETNTSSEPVTSPLRTTPNSIKRQKRLFKSPISNCLNPKSDPEITQLLSRRLKLEKEVRNLQEQLITAETARKVEAKNEDKDLQTLIQKWKNAAQQAAEVLFKPMAERIRLAGGVTQSFRIEEGENKGQIQEVRTEFTMSMFLNQFGVPVHLMSFDEENGDWKS
B2: Rad51 (S. pombe), purified (natural protein, UniProt P36601 1-365, looked up)
chain: MADTEVEMQVSAADTNNNENGQAQSNYEYDVNVQDEEDEAAAGPMPLQMLEGNGITASDIKKIHEAGYYTVESIAYTPKRQLLLIKGISEAKADKLLGEASKLVPMGFTTATEYHIRRSELITITTGSKQLDTLLQGGVETGSITELFGEFRTGKSQICHTLAVTCQLPIDMGGGEGKCLYIDTEGTFRPVRLLAVADRYGLNGEEVLDNVAYARAYNADHQLELLQQAANMMSESRFSLLVVDSCTALYRTDFSGRGELSARQMHLARFMRTLQRLADEFGIAVVITNQVVAQVDGISFNPDPKKPIGGNILAHSSTTRLSLRKGRGEQRICKIYDSPCLPESEAIFAINSDGVGDPKEIIAPV

Key:
[1] = target: B2; test: cell-based or functional assay
[2] = target: B1; test: pull-down
SEC = target: the molecule itself; test: SEC

| Rad51-dependent ATP turnover, Swi5-Sfr1:Rad51 ratio of 1:20 [1] | binding result [2] | Binder | binding result (SEC) |
| --- | --- | --- | --- |
| 1.85 fold |  | B1 |  |
|  | binds | B2 | binds |
